Assay: soluble on expression in E. coli; label from the status in PepcDB or PDB records
In the case of “MYEIKGHHHISMVTKNANENNHFYKNVLGLRRVKMTVNQDDPSMYHLFYGDKTGSPGTELSFFEIPLVGRTYRGTNAITRIGLLVPSEDSLHYWKERFEKFDVKHSEMTTYANRPALQFEDAEGLRLVLLVSNGEKVEHWETWEKSEVPAKHQIQGMGSVELTVRRLDKMASTLTEIFGYTEVSRNDQEAIFQSIKGEAFGEIVVKYLDGPTEKPGRGSIHHLAIRVKNDAELAYWEEQVKQRGFHSSGIIDRFYFKSLYFRESNGILFEIATDGPGFTVDGDVEHLGEKLDLPPFLEDQRAEIEANLAPIEEK”, the “soluble on expression in E. coli” value is reported as “soluble”. In the case of “AIAFILSAQRLSGTQVFRRLAEGCTGYSVSSGCRQRRRCCPGAPQRPRRVRVNALQLQSGLADPLDPKSEAEVREHLRSNSPAERALGINYARYLDESTRYDILLEMMEDTDPQVRYAAVTQLATVGSHDRQRTLKAVRKILWNTEEDASVRAGALTCWAVSGSTRPSQTWKSSSTSRRTGWCGSASSLL”, the “soluble on expression in E. coli” value is reported as “soluble”. In the case of “MIEFRNVSKVYPNGTKGLNNINLKIQKGEFVVMVGLSGAGKSTLLRSVNRLHEITEGEIMIEGESITAAKGKGLRRMRRDIGMIFQSFNLVKRSTVLKNVLAGRVGYHSTLRTTLGLFPKEDLELAFQSLKRVNILEKAYARADELSGGQQQRVSIARALAQEAKIILADEPVASLDPLTTKQVLEDLKKINEDFGITTIVNLHSIDLARQYATRIIGLHAGEIVFDGLVEEATDEKFAEIYGDVVQKSELLEVAVK”, the “soluble on expression in E. coli” value is reported as “not soluble”. With “MGSDKIHHHHHHMGETNQQGVKNPLQTKEVAERQAKKEKQVVFIYYDHEPTYKLLEDQLVDQGDFELVSTNQSEDAVAILGSLSIDSVVFINTAKSKQMYQLYEKTSGSHHYLHAPFFYIGECSHEEMGQIFANGHEFISSPFNLETFYLKMKAKLDHCTRIKNDRQIDLVTQLYTERFLEKMFHLQVANLVRFKTSFTVIFLSLYNYYELKTKYGLTIADQIVATVSDYIKSQVRDSDLAFRMDAEDEIAVILPNGGQTEAGYFVRRVFEHIPPVTTTENGEPLQFFIELSASIVEINNADVTYEEMLEKGKEALQEAVFKGASTIETVNDFQEPNVEKIKVTVIVEDQVIRSVLVNLLQRLTLEYFELDVQTFFDGEALLESSWHRSAHTHIVIMDDVLPKRNGLEMVHELRKMPNNEKYIVMMLSNRKTEEDVTYAFEMGVDDYITKPFNVKFVESRLKRYLKRLR” the “soluble on expression in E. coli” value was “not soluble”. With “NFVAPQDRIATFDNDGTLWSEKPMYFQILFMLDQIKEQAASHPDWKTTKPYSLVLSGQIDKLSLEDVLTMVQKTHSGMSSDEFTSIVQAWISTAKHPATGRPYTDMVYQPMLELLDYLDSNGFKNFIVSGGGNAFMRAWATDVYNIPSERIIGTRLSTEFVNVDGSYQVKRVPGIEVNNDKAEKPQQIYQHIGKRPIASFGNSDGDLQMLQWTTSGT” the “soluble on expression in E. coli” value was “not soluble”. In the case of “MVEKFDTIYDYYVDKGYEPSKKRDIIAVFRVTPAEGYTIEQAAGAVAAESSTGTWTTLYPWYEQERWADLSAKAYDFHDMGDGSWIVRIAYPFHAFEEANLPGLLASIAGNIFGMKRVKGLRLEDLYFPEKLIREFDGPAFGIEGVRKMLEIKDRPIYGVVPKPKVGYSPEEFEKLAYDLLSNGADYMKDDENLTSPWYNRFEERAEIMAKIIDKVENETGEKKTWFANITADLLEMEQRLEVLADLGLKHAMVDVVITGWGALRYIRDLAADYGLAIHGHRAMHAAFTRNPYHGISMFVLAKLYRLIGIDQLHVGTAGAGKLEGGKWDVIQNARILRESHYKPDENDVFHLEQKFYSIKAAFPTSSGGLHPGNIQPVIEALGTDIVLQLGGGTLGHPDGPAAGARAVRQAIDAIMQGIPLDEYAKTHKELARALEKWGHVTPV”, the “soluble on expression in E. coli” value is reported as “soluble”. In the case of “SLSGNGFDAILALSHRTSHTTYGNPFFSDVIQSISAVSEQNNFDLILQTAKTPEEELEKCAKKIQEKMIRGIIILSSTMDETLLFELDQYNIPIVVIGKVGNDYTNIYSVDTDNFQDSYDLVETLIKNGHRHIGCLHAPTEVYVSNDRLNGYRQCLFDHHLDIRNEWIIDGGFRLEDSMAAMNDLMKLRERPTAIFSTDALKSLSIYKVAEQSGKQIPDDLSIAGFSDPLLSSLFSPQLTRIDIPTNQLGIKATELLFQLIHHQYPEEKRIILSTEITLTDSI”, the “soluble on expression in E. coli” value is reported as “soluble”. For “MSRHLTFHIITNVPYSNLNRDDSGTPKRVSLGGALRALHSSQSIKRGIRTKYELASLDTSIRSGKLVEEVVRVGLDLKPEVDEKLLRKGAAKIIGSLTKGESSEGESARSAWMSREEITTAAQTVIDGQEDSDFIQDNRTGSLAIAAFGRMFANAPKKNTEAALAVSPGVTTHAVTIETDYFSTVDDVREREHDSGATFLGVARYVNGTFYRTVSIDKEQLRESWSGFGQEESVDNLRELIKAIVYGAPRGKENSTAPYTLPSLVFAEEQHYRTAYSFETPVLVGKDGGFEFPTICELDRQFARARSFDKGNFGPLEVVSGTAVLEDEQFEGVQRSDLNGLIEAVVNWVTND”, the “soluble on expression in E. coli” value was “not soluble”. With “MSLKKYMGIIVDAISRRQFKGEITVENGKIIRVEEKEHDNEQYILPGLVDAHVHIESSMTVPSVFARMAVAKGTVAVVSDPHEIANVMGEEGIEFMLEDSKKSPLKVYFGVPSCVPATPFESSGAVLDINAVDRLLAKDDLHYLSEMMNFPGVILEFPDVMAKLESARKHGKVIDGHAPGLRGADLQKYIGAGISTDHECFEYEEAREKIELGMKILIREGSSARNFETLYPLIDEYPDHVMLCTDDSHPDTLIYEGHIDKLIRRGQEKGLDIYNLIRTAVFNPVEHYGLNVGLLREGDPADFIIVDNLKSFNILSTFIDGECVYENGKVLFPLEKVPAKNVFNRNKISIDDVKLVPPAGAIQEQTTEKGIKKIRVIVANDGELVTGQELIVPKIENGNLVSDPERDILKMVVLSRYSDDPVRIGFIKNIGLEKGAIASSIAHDSHNIIAVGATDEDIVETVNRLIKNKGGIAVGTAENLLDLPLEVAGLMSTLEGEEVASRYHLLNEEARKLGTSLESPFMTLAFMSLLVIPELKLGDKGLFDVTKFEFVDLFADEGHHHHHH” the “soluble on expression in E. coli” value was “soluble”. For “SKMTYADGTPIANIKSDLIRTRINGDQMSPLLKKAIISTEDEYFEEHHGVVPKALVRALISDATGIGGSSGGSTLTQQLVKQQILTDETTFKRKANEILLALRIEKYFSKDEIVTTYLNVSPFGRNNKGENIAGVEEAAKGLFGKSAKDLNLPQAAFIAGLPQSPIVYTPYTNT”, the “soluble on expression in E. coli” value was “not soluble”. For “MGSDKIHHHHHHAACADNADLNEPAGSTTPPAQVLNATVKNLPGAAIIYYDLPDDQNLKYVRASYKVDNMVRTVNASFYTDSLVVEGFPTKGEYDIELYSVSYGEVVSSPLVVKVNPDTPPYQKVRGTLVSAETFGGIRVNFDNPEKAKLGLGVIKKQAEGIWTQVYMHYTEAKGGDFYVRGLDAVTTDFGIFVRDRWGHLSDTLYVTETPLYEEQCDKSLFRKMALPTDSYECHSWNEVTKGNDMTRLWDGITDADPCFQTKTTTVMPQWFTFDMGENYKLSRFVMVSRYYPGKYGNTFKAGHPKHFEIWGSINPNPDGSFDDSWVLLSEYESVKPSGGGVNDALTAEDQEAAKNGENFIIPDNAPAVRYIRFRTNNTWGNTRYMHLHELTFFGAKHN”, the “soluble on expression in E. coli” value was “not soluble”. With “MGSDKIHHHHHHMATAIRGLKLQTEDYFLTDKNAVMVAERHPQPVFPLHHHDFDELVIVWRGNGLHLWNDVPYRITRGDMFYVSAHDRHSYESVHELELDNILYIRNRLTLSADWQTLLPSGELPQSQRHWCLGSEGMDTIREKVDALTQECMKSDALSLQLSEALLLQIALLAARYRHSPDSPQLADAHQLDMLMNALRASIAAPFRFEAFCEQHHFSARSLRSRFKEQTGMSVPHYLRQLRLCKAMELLRYDLQTIGDVAALCGFEDSNYFSVVFHQAFGVSPSAYRQRFLNVE” the “soluble on expression in E. coli” value was “not soluble”. For “MGSDKIHHHHHHMSIRGKAFIVGAYEHPGRNLPDHSVQQIHAECAMGALSDAGLSIKDVDGYFSNGQLGFGGISMAEYLGLRLSYIDSTFTGGSSYMAHVGHAAAAIAAGKCKVALITQGAKVRGVIRGAKHTADTPEFPFETVYGETNAAIYALAARRHMHEYGTTAEQLAAVKVAAAAYAQHNPNALLRKLVSIDDVMNSPIIADPLHRLDCCVVTDGGGALVLVAPEIARSLKRQSVKLLGHAEAIRHGGDGPSDFASTAAALSGPRAFTEAGVSPRDVRYASIYDSFTITVIMTLEDLGFCGKGEGGAFVASGALGLDGLLPINTDGGGLCNNHPGYQGGMVRTIEAVRQLRGEANPNTQVKNCTIALAHGTGGGMSRHASVTLVLGQEDA”, the “soluble on expression in E. coli” value was “not soluble”. With “MGSDKIHHHHHHMSKFKVKRLTAHILMLKVINDMLKYSFHLTLTQVKLLNLLVKYDNSDSNSASIDRLLKMKEIQSKMALLQMLSYLNNHQWLLKGRDQRDQRKLTISINKMHIDKIEYMNNELSDYIERYFGQYTFDFSCDYVSYLLSSQELFRNLKCYLNMCQLTLEELYVLGILNLHKGQLTVKELQGEFHHPIFAVSPILKCLILKGLVKKERCELDERRVIVTIKREKFSKVTMLIQACYNYLEKGIQVKLNNK” the “soluble on expression in E. coli” value was “not soluble”. In the case of “MAKQRVFIAGHRGMVGSAIRRQLEQRGDVELVLRTRDELNLLDSRAVHDFFASERIDQVYLAAAKVGGIVANNTYPADFIYQNMMIESNIIHAAHQNDVNKLLFLGSSCIYPKLAKQPMAESELLQGTLEPTNEPYAIAKIAGIKLCESYNRQYGRDYRSVMPTNLYGPHDNFHPSNSHVIPALLRRFHEATAQKAPDVVVWGSGTPMREFLHVDDMAAASIHVMELAHEVWLENTQPMLSHINVGTGVDCTIRELAQTIAKVVGYKGRVVFDASKPDGTPRKLLDVTRLHQLGWYHEISLEAGLASTYQWFLENQDRFRG”, the “soluble on expression in E. coli” value is reported as “soluble”. In the case of “MSGDENPASKPTPVQDVQGDGRWMSLHHRFVADSKDKEPEVVFIGDSLVQLMHQCEIWRELFSPLHALNFGIGGDSTQHVLWRLENGELEHIRPKIVVVWVGTNNHGHTAEQVTGGIKAIVQLVNERQPQARVVVLGLLPRGQHPNPLREKNRRVNELVRAALAGHPRAHFLDADPGFVHSDGTISHHDMYDYLHLSRLGYTPVCRALHSLLLRLLTQDQGQGGAPLPEPSP”, the “soluble on expression in E. coli” value is reported as “soluble”. With “MSLKRMVNVLFAGVLAMTVLSCGEEKKGYTLNGEISDVKDGMVYLKKYQDKSFIAVDSAVITDGTFKFEGVCTEPLAYGLTTFRDSKRPLVFFLDNEKMQLKMNESEKILTVTGSAINDLYAQNAPLTRQDGYSIDSLVAVHPASAVTPYFIVKDFAYKLNLEEMKALRAKLDASLDETMYVSQIDGFIKRMKDIQVGAVAPDFTLPDVDGNPVTLSGLRGKYVLIDFWASWCPDCRKENPNIVAAWNKYKDKNFTILGVSLDRKKEPWLAAIEKDQLAWTHVSDLKDWKSDAAVQYAIRWIPMNFLLDPNGVILAVGLEGEALQQKLDEVLKEGHHHHHH” the “soluble on expression in E. coli” value was “not soluble”. For “MPGTEKTQHISLTTQVENRLKHQLSIGALKPGARLITKNIAQELGVSITPVREALLRLVSSSALAVAPAQAFMVPEISLESLLEINTIRTALEEMAVVAAAGKITPDREQTLNALLDEFQQALESGVMEKILLANRAFRFEIYHYADMPTLYAMIEQLWVRLGPSLHFLYDNFKLDDYQNGVNLYRKLLNALVTGDKEASRHCLQNVLQQNVATIKNQYFM”, the “soluble on expression in E. coli” value was “not soluble”. For “MAEGNTLISVDYEIFGKVQGVFFRKHTQAEGKKLGLVGWVQNTDRGTVQGQLQGPISKVRHMQEWLETRGSPKSHIDKANFNNEKVILKLDYSDFQIVG”, the “soluble on expression in E. coli” value was “soluble”. With “MSLADQAIHWLFPTPVLQADLTPTADVALAMDQQLALFDREVFSHPEFSNRNNLTGDLLGKAGLDQLHRLEAFQWLNQQLAVHVDAFLRELLGPNHALEVHIQKAWPVVCARQGGTIEPHTHRNAQLSAVFYVRTEPDNPSGELEFQAADDYFSHVMAIPYRDAAVSGGVFAPQQHRLLLFPSDLRHQVTPYEGASPRYSVSYDLAITTAPGHGREMRMPHPMDWVPLCKPGPAEGHHHHHH” the “soluble on expression in E. coli” value was “soluble”.

Source: the DeepSol protein solubility set
